In data set [1] the target is T1, SpNanR (Streptococcus pneumoniae, UniProt A0A0H2ZPE9 1-283). Put plainly: MST; range over three sites; MST: 20 mM Tris-HCl pH 8.0, 300 mM NaCl, 0.05% Tween-20, 20 C, 20 nM FAM-DNA; AUC: 50 nM FAM-DNA, 0.019-5 uM SpNanR, buffer not in the material. The settings on record: protein: recombinant; tags: none; chain copies: 2; label: 5'-FAM on sense strand.
The target of the next data set is SpNanR R56A (Streptococcus pneumoniae, UniProt A0A0H2ZPE9 1-283, R56A). Put plainly: MST; protein up to 5000 nM; MST: 20 mM Tris-HCl pH 8.0, 300 mM NaCl, 0.05% Tween-20, 20 C, 20 nM FAM-DNA; AUC: 50 nM FAM-DNA, 0.019-5 uM SpNanR, buffer not in the material. To be noted: protein: recombinant; tags: none; chain copies: 2; label: 5'-FAM on sense strand.
The next data set addresses SpNanR T18A (Streptococcus pneumoniae, UniProt A0A0H2ZPE9 1-283, T18A). The data set is described as above. To be noted: protein: recombinant; tags: none; chain copies: 2; label: 5'-FAM on sense strand.
The target of another data set is SpNanR R67A (Streptococcus pneumoniae, UniProt A0A0H2ZPE9 1-283, R67A). The description is as above. The settings on record: protein: recombinant; tags: none; chain copies: 2; label: 5'-FAM on sense strand.
The target in data set [2] is T1, SpNanR. Put plainly: fluorescence-detection AUC (sedimentation velocity); no effector; Hill n 2.3; MST: 20 mM Tris-HCl pH 8.0, 300 mM NaCl, 0.05% Tween-20, 20 C, 20 nM FAM-DNA; AUC: 50 nM FAM-DNA, 0.019-5 uM SpNanR, buffer not in the material. To be noted: protein: recombinant; tags: none; chain copies: 2; label: 5'-FAM on sense strand.
Data set [3] deals with the molecule itself. Put plainly: SAXS with in-line size exclusion chromatography; SpNanR without N-acetylmannosamine-6-phosphate.
Data set [4] concerns the molecule itself. Put plainly: AUC; sedimentation velocity, SpNanR 0.27–153.5 μM with 2 mM N-acetylmannosamine-6-phosphate, 20 mM Tris–HCl pH 8.0, 300 mM NaCl, 20°C, 42 000 rpm; constant of: tetramer to dimers.
Data set [5] deals with the molecule itself. Put plainly: AUC; sedimentation velocity, SpNanR 4.3–227.7 μM without N-acetylmannosamine-6-phosphate, 20 mM Tris–HCl pH 8.0, 300 mM NaCl, 20°C, 42 000 rpm; weight-averaged s fitted to a dimer–tetramer self-association model; constant of: tetramer to dimers.
Data set [6] deals with the molecule itself. Put plainly: AUC; sedimentation velocity of SpNanR variants and wild type at 15 μM, with N-acetylmannosamine-6-phosphate.
Data set [7] deals with the molecule itself. Put plainly: AUC; sedimentation velocity of SpNanR variants and wild type at 15 μM, without N-acetylmannosamine-6-phosphate.
The target of data set [8] is T1, SpNanR. Put plainly: MST; protein up to 5000 nM; MST: 20 mM Tris-HCl pH 8.0, 300 mM NaCl, 0.05% Tween-20, 20 C, 20 nM FAM-DNA; AUC: 50 nM FAM-DNA, 0.019-5 uM SpNanR, buffer not in the material. To be noted: protein: recombinant; tags: none; chain copies: 2; label: 5'-FAM on sense strand.

Substitutions are numbered along the chain they refer to. Numbers in names are those of the source. Where “and” joins values, the source holds several entries; their conditions need not be identical. Equal entries are not always repeated.

B1: cryptic site downstream of siaA operon (site 4) (dsDNA)
DNA 1: TCTGAAACTACTTTCAGA
DNA 2: TCTGAAAGTAGTTTCAGA
By Kd is commonly meant the constant that tells how readily two partners part at equilibrium. Consider B1, for which, in the data set with SpNanR [1], the Kd was approximately 603 nM.

B2: nanE recognition sequence (site 2), FAM (dsDNA)
DNA 1: TCTGAAAGTACTTTTAGA
DNA 2: TCTAAAAGTACTTTCAGA
Turning to B2, the binding result in the data set with SpNanR R56A, with SpNanR T18A and with SpNanR R67A was “no binding” each time. Besides, the Kd is approximately 603 nM with SpNanR [1] and 476 ± 75 nM with SpNanR [2].

B3: Streptococcus pneumoniae NanR (SpNanR), wild type (natural protein, UniProt A0A0H2ZPE9 1-283, looked up)
chain: MDKPDIATIIDSHFEEMTDLEQEIARYFLQAETITDDLSSQQVTQKLHISQAALTRFAKKCGFTGYREFIFQYQHQAENQANQVSKHSPLTKRVLRSYSNMREQTQDLIDEIQLERIAQLIEDAERIYFFGTGSSGLVAREMKLRFMRLGVVCEALTDQDGFAWTTSIMDENCLVLGFSLSGSTPSILDSLLDAKEMGAKTVLFTSVPNKNSQTYTETVLVATHSQPSYIQRISAQLPMLFFIDLIYAYFLEINRESKEKIFNSYWENKKLNGYRRQKRVRKS
notes: RpiR family transcriptional regulator NanR of Streptococcus pneumoniae, recombinant full length; intact mass 32 611 Da; Self-associates between dimer and tetramer; cloned into pET30ΔSE; no tag; also called SpNanR^WT; apo-SpNanR
One may read the stoichiometry N as the number of molecules, sites or subunits per partner or assembly. Turning to B3, the “stoichiometry N” value in data set [3] is 4 and 2. In addition, the Kd in data set [4] is less than 200 nM; in data set [5], 97000 nM.

B4: SpNanR^D160A (natural protein)
chain: B3 chain with D160A
notes: NanR of Streptococcus pneumoniae with D160A; Variant of the full-length recombinant SpNanR; source: E. coli BL21(DE3), recombinant
With B4, the “stoichiometry N” value turned out to be 4 in data set [6] and 2 in data set [7].

B5: SpNanR^R148A (natural protein)
chain: B3 chain with R148A
notes: NanR of Streptococcus pneumoniae with R148A; Variant of the full-length recombinant SpNanR; source: E. coli BL21(DE3), recombinant
Take B5: the “stoichiometry N” value in data set [7] came to 2.

B6: nanE A10C (dsDNA)
DNA 1: TCTGAAAGTCCTTTTAGA
DNA 2: TCTAAAAGGACTTTCAGA
For B6, in the data set with SpNanR [8], the binding result is reported as “no binding”.

B7: nanE G4T (dsDNA)
DNA 1: TCTTAAAGTACTTTTAGA
DNA 2: TCTAAAAGTACTTTAAGA
As to B7, the binding result with SpNanR [8] is given as “no binding”.

B8: nanA recognition sequence (site 1) (dsDNA)
DNA 1: TCTGAAACTACTTTCAAA
DNA 2: TTTGAAAGTAGTTTCAGA
Turning to B8, the Kd with SpNanR [1] is approximately 603 nM.

Values taken from paper PMC13635753, “Mechanism of NanR transcriptional activation of sialic acid metabolism in Streptococcus pneumoniae” (Nucleic Acids Research, 2025).
